What was measured:
Jurkat cells = assay: FACS binding of Y1-cys monomer and dimer to Jurkat cells; parameters: species or system human
Text: The present invention is directed to Y1 and Y17 multimers prepared by any known method in the art. A preferred method of forming multimers, and especially dimers, employs the use of cysteine residues to form disulfide bonds between two monomers. In this embodiment, dimers are formed by adding a cysteine on the carboxyl terminus of the scFvs (referred to as Y1-cys scFv or Y1 dimer) in order to facilitate dimer formation. After the DNA construct was made (See Example 2D and 6D) and used for transfection, Y1 dimers were expressed in a production vector and refolded in vitro. The protein was analyzed by SDS-PAGE, HPLC, and FACS. […] Thus, the process was repeated and this time, two-liter fermentation batches of the antibodies were run. After expressing Y1-cys in E. coli strain BL21, refolding was done in arginine. Following refolding, the protein was dialyzed and purified by Q-sepharose and gel filtration (sephadex 75). Two peaks were detected by SDS-PAGE (non-reduced) and by gel filtration. The peaks were collected separately and analyzed by FACS. Monomer and dimer binding to Jurkat cells was checked by FACS. […] Conditions for dimer refolding were determined, and material comprising >90% dimers (mg quantities) was produced after subsequent dialysis, chromatographic, and gel filtration steps. […]

KG-1 cells [1] = assay: Binding competition experiments on KG-1 cells (monomer, dimer, Y1 IgG); parameters: species or system human; conditions: as analyzed by radioreceptor assay, ELISA or FACS
Text: To compare the binding of the scFv monomer (also referred to as CONY1) with the Y1 dimer, binding competition experiments were done in vitro on KG-1 cells. In addition, these experiments also compared the binding of the full Y1 IgG to the scFv Y1 monomers. To perform this study, a Y1 IgG was labeled with biotin.

[2] = test system: platelet-rich-plasma (PRP); assay: Ristocetin-induced aggregation of platelet-rich plasma (scFv); assay type: cell-based, human; conditions: scFv 38 μg/ml, 100% = ristocetin treatment
Experimental: The effect of Y1 (scFv) on aggregation of platelet-rich-plasma (PRP) was tested at various concentrations of Y1. PRP was pre-incubated with Y1 scFv, Y17 scFv, or a control sTM-1cFv for 4 min at 37° C. before being exposed to ristocetin, an inducer of platelet agglutination and aggregation. A reversible inhibitory effect was observed when scFv was added to PRP prior to the addition of ristocetin, and it was dose dependent.
Blood was collected into a tube containing 3.8% sodium citrate. Platelet-rich plasma was prepared by centrifugation at 250×g for 10 minutes.
(§1) For platelet aggregation studies, platelet rich plasma (PRP) and washed platelets were stirred at 500 rpm at 37° C. in whole blood Lumiaggregometer (Chronolog, Havertown, Pa.). The difference in light transmission through the platelet suspension and suspending medium was taken as 100% aggregation. The effect of Y1 on platelet aggregation was evaluated by addition of different concentration of Y1 before the addition of agonist, and the effect was recorded for four minutes.

washed platelets = assay: Ristocetin-induced agglutination of washed platelets (scFv); assay type: cell-based, human
Experimental: Aggregation is determined in PRP due to the presence of thrombotic agents, while agglutination is determined in washed platelets. The effect of Y1 (scFv) on agglutination of washed platelets was tested at various concentrations of Y1. Platelets were pre-incubated with Y1 scFv, Y17 scFv, Y16-scFv, or a control TM-1 scFv for 4 min at 37° C. before being exposed to ristocetin, an inducer of platelet agglutination and aggregation.
Platelet concentrate in acid-citrate-dextrose (ACD) was obtained from a blood bank, platelets were isolated, washed once in buffer containing ACD and saline in a ratio of 1:7. The platelets were centrifuged at 800 g for 10 min after each wash and were resuspended in Tyrodes solution (2 mM MgCl2, 137 mM NaCl, 2.68 mM KCl, 3 mM NaH2PO4, 0.1% glucose, 5 mM Hepes and 0.35% albumin, pH 7.35) and count the number of cells.
as §1
The effect of Y17-scFv on vWF-dependent agglutination of platelets was tested at different concentrations of Y17.

KG-1 cells [3] = assay: FACS of Y1-biotag and Y1-biotag/streptavidin-PE tetramers on KG-1 cells; assay type: binding, human
Experimental: In a preferred method, tetramers are formed via a biotin/streptavidin association. A novel fermentation construct that is capable of being enzymatically labeled with biotin (referred to herein as Y1-biotag or Y1-B) was created. A sequence that is a substrate for the BirA enzyme was added at the Y1 C-terminus. The BirA enzyme adds a biotin to the lysine residue within the sequence. Y1-biotag was expressed in E. coli. The inclusion body material was isolated and refolded. The purity of the folded protein was >95%, and >100 mg were obtained from a 1-L culture (small-scale, non-optimized conditions). […] Nevertheless, this construct offered the advantage of specific biotinylation in which the binding site of the molecule remains intact. Further, each molecule is labeled by only one biotin—each molecule receives one biotin on the carboxyl end.
Limiting labeling to one biotin/molecule in a desired location enabled production of tetramers with streptavidin. The tetramers were formed by incubating Y1-B with steptavidin-PE.
Y1-biotag tetramers with streptavidin-PE appear to specifically bind to one of the Y1-reactive cell lines (KG-1). The differential of this reaction, from background binding, was very high, and offered high sensitivity to detect low amounts of receptor. […] Monocytes and granulocytes were positive to a small extent. […]

B1: Y1 dimer: disulfide dimer of Y1 scFv with a cysteine added on the carboxyl terminus (protein)
scFv 1: MEVQLVESGGGVVRPGGSLRLSCAASGFTFDDYGMSWVRQAPGKGLEWVSGINWNGGSTGYADSVKGRFTISRDNAKNSLYLQMNSLRAEDTAVYYCARMRAPVIWGQGTLVTVSRGGGGSGGGGSGGGGSSELTQDPAVSVALGQTVRITCQGDSLRSYYASWYQQKPGQAPVLVIYGKNNRPSGIPDRFSGSSSGNTASLTITGAQAEDEADYYCNSRDSSGNHVVFGGGTKLTVLGGGGCKAK
scFv 2: MEVQLVESGGGVVRPGGSLRLSCAASGFTFDDYGMSWVRQAPGKGLEWVSGINWNGGSTGYADSVKGRFTISRDNAKNSLYLQMNSLRAEDTAVYYCARMRAPVIWGQGTLVTVSRGGGGSGGGGSGGGGSSELTQDPAVSVALGQTVRITCQGDSLRSYYASWYQQKPGQAPVLVIYGKNNRPSGIPDRFSGSSSGNTASLTITGAQAEDEADYYCNSRDSSGNHVVFGGGTKLTVLGGGGCKAK
B1 was tested, and the “amount needed relative to the monomeric antibody for the same level of staining” value (Jurkat cells) was 1/100 and the “binding relative to the Y1 scFv monomer” value (KG-1 cells [1]) was “at least 20 fold”.

B2: Y17 scFv: second scFv clone binding platelets and myelogenous leukemia cell lines; SEQ ID NO:203, CDR3 SEQ ID NO:20 (protein, listed as Homo sapiens)
scFv: MKYLLPTAAAGLLLLAAQPAMAEVQLVESGGGVVRPGGSLRLSCAASGFTFDDYGMSWVRQAPGKGLEWVSGINWNGGSTGYADSVKGRFTISRDNAKNSLYLQMNSLRAEDTAVYYCARLTHPYFWGQGTLVTVSRGGGGSGGGGSGGGGSSELTQDPAVSVALGQTVRITCQGDSLRSYYASWYQQKPGQAPVLVIYGKNNRPSGIPDRFSGSSSGNTASLTITGAQAEDEADYYCNSRDSSGNHVVFGGGTKLTVLGAAAEQKLISEEDLNGAA
B2 was tested, and the “% aggregation” value [2] was 100%, the “inhibition of vWF-dependent platelet agglutination” value (washed platelets; final concentration of 10, 25 or 50 μg/ml, washed platelets, ristocetin) was “did not inhibit” and the “% agglutination” value (washed platelets; scFv 25 μg/ml, 100% = ristocetin treatment) was 85%. The “% inhibition” value (washed platelets; scFv 25 μg/ml, ristocetin-induced agglutination) was 15%.

B3: Y1 tetramers: tetramers formed by incubating Y1-B with streptavidin-PE (protein)
scFv 1: MEVQLVESGGGVVRPGGSLRLSCAASGFTFDDYGMSWVRQAPGKGLEWVSGINWNGGSTGYADSVKGRFTISRDNAKNSLYLQMNSLRAEDTAVYYCARMRAPVIWGQGTLVTVSRGGGGSGGGGSGGGGSSELTQDPAVSVALGQTVRITCQGDSLRSYYASWYQQKPGQAPVLVIYGKNNRPSGIPDRFSGSSSGNTASLTITGAQAEDEADYYCNSRDSSGNHVVFGGGTKLTVLGGGGLNDIFEAQKIEWHE
scFv 2: MEVQLVESGGGVVRPGGSLRLSCAASGFTFDDYGMSWVRQAPGKGLEWVSGINWNGGSTGYADSVKGRFTISRDNAKNSLYLQMNSLRAEDTAVYYCARMRAPVIWGQGTLVTVSRGGGGSGGGGSGGGGSSELTQDPAVSVALGQTVRITCQGDSLRSYYASWYQQKPGQAPVLVIYGKNNRPSGIPDRFSGSSSGNTASLTITGAQAEDEADYYCNSRDSSGNHVVFGGGTKLTVLGGGGLNDIFEAQKIEWHE
scFv 3: MEVQLVESGGGVVRPGGSLRLSCAASGFTFDDYGMSWVRQAPGKGLEWVSGINWNGGSTGYADSVKGRFTISRDNAKNSLYLQMNSLRAEDTAVYYCARMRAPVIWGQGTLVTVSRGGGGSGGGGSGGGGSSELTQDPAVSVALGQTVRITCQGDSLRSYYASWYQQKPGQAPVLVIYGKNNRPSGIPDRFSGSSSGNTASLTITGAQAEDEADYYCNSRDSSGNHVVFGGGTKLTVLGGGGLNDIFEAQKIEWHE
scFv 4: MEVQLVESGGGVVRPGGSLRLSCAASGFTFDDYGMSWVRQAPGKGLEWVSGINWNGGSTGYADSVKGRFTISRDNAKNSLYLQMNSLRAEDTAVYYCARMRAPVIWGQGTLVTVSRGGGGSGGGGSGGGGSSELTQDPAVSVALGQTVRITCQGDSLRSYYASWYQQKPGQAPVLVIYGKNNRPSGIPDRFSGSSSGNTASLTITGAQAEDEADYYCNSRDSSGNHVVFGGGTKLTVLGGGGLNDIFEAQKIEWHE
modifications: left off: another chain or arm of the molecule; large carriers; small tags and cut ends
notes: tetramers formed by incubating Y1-B with streptavidin-PE
In the case of B3, the “reactivity in positive cell lines such as KG-1” value (KG-1 cells [3]; FACS) is reported as “at least 100 fold” and the “increase of the sensitivity of the binding” value (KG-1 cells [3]; complexes with Streptavidin-PE, FACS on KG-1 cells) is reported as “at least 100 fold”.

From patent publication US20040001839A1, “Multimers - isolated molecules comprising epitopes containing sulfated moieties, antibodies to such epitopes, and uses thereof” (priority 2000, published 2004)
